Data as given in PMC9065173.

Target: CXC-chemokine receptor 4 (CXCR4) (human (endogenous in MOLM13 and CEM)) (UniProt P61073)
Sequence of UniProt P61073 (P61073 whole entry): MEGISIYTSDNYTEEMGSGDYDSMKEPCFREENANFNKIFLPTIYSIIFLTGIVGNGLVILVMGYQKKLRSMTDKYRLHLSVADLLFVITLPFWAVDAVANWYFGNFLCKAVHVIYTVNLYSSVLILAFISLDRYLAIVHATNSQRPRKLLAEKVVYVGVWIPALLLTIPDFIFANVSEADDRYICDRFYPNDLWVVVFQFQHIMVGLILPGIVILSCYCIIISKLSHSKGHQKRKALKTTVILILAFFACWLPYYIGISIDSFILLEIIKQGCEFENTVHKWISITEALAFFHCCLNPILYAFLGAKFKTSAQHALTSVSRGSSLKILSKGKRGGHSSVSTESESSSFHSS

With “bifunctional T140-KLA peptide, ligated onto the RBCEV surface (T140-KLA-EVs)” the apoptosis of MOLM13 cells after 4 days with T140-KLA-EVs (annexin V / PI staining, flow cytometry); no difference between T140-KLA-EVs and KLA-EVs in CXCR4-negative AsPC-1 cells was over 50%.
